Data on 1 substance can be found in PMC2141704.

pKd: −log10 of the molar value.

This experiment concerns the target GST-mouse ZO-1 (1–862 amino acids) (mouse) (UniProt P39447). Kind of experiment: pull-down.

What is called pKd is the Kd on a negative log10 scale, so that one unit is a factor of ten.

Chain of UniProt P39447 (P39447 1-862): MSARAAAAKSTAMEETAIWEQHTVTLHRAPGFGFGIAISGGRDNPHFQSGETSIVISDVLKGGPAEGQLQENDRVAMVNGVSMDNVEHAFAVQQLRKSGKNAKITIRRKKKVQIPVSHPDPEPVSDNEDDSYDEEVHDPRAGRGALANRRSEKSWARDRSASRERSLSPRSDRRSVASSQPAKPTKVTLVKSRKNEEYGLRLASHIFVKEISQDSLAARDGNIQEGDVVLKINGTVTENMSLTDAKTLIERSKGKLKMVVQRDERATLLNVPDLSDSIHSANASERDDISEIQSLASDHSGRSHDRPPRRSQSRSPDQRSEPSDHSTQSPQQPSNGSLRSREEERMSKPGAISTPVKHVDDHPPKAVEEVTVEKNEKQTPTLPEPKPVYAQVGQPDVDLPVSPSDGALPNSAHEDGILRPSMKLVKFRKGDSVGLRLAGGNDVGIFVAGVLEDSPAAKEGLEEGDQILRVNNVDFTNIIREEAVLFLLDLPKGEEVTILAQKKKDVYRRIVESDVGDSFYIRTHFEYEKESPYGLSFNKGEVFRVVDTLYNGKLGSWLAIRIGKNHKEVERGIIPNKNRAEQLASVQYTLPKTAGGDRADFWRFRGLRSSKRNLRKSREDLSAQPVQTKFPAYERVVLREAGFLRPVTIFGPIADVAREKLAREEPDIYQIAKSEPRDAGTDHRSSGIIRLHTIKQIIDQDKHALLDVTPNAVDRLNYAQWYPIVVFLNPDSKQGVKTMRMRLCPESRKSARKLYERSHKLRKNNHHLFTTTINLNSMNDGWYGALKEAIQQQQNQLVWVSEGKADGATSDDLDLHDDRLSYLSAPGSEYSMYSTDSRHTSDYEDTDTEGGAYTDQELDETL

For the substance “MBP-AF-6 (36–206 amino acids) (domain or fragment)”, the pKd was 6.59.
